Laboratory results taken from US20190092852A1 (Genentech, published 2019).
“And” between values parts separate entries of the source, which are not always exact repeats. Identical values can stand only once.

T1: human IL-33 (Genentech, huIL33.his) (human, UniProt O95760 112-270)
T1 sequence (looked up): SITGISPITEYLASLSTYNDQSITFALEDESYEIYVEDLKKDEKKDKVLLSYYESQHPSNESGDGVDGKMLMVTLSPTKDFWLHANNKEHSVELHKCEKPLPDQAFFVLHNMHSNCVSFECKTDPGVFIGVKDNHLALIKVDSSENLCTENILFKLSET

T2: human IL-33 (cell-based blocking assay of Example 2) (human, UniProt O95760 112-270)
T2 sequence (looked up): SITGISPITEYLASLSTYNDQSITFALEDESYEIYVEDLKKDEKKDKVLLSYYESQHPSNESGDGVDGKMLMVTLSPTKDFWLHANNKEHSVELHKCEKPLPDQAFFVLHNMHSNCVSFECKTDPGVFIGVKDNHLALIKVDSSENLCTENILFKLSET

T3: cyno IL-33 (cell-based blocking assay of Example 2) (cynomolgus monkey, UniProt A0A2K5W3I1 95-269)
T3 sequence: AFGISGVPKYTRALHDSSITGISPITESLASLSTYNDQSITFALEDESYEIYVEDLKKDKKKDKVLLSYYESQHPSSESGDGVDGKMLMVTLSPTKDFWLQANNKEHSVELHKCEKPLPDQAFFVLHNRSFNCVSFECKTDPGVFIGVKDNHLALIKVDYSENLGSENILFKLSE

T4: cyno IL-33 N-His (cynomolgus monkey)
T4 chain: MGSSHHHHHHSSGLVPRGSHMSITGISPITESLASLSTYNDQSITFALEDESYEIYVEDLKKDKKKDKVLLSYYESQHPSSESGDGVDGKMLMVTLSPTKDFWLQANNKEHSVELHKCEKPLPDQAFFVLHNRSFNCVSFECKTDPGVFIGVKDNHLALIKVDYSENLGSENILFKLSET

T5: biotinylated cyno IL-33 (cynomolgus monkey, UniProt A0A2K5W3I1 112-269, biotin-labeled with EZ-LINK NHS-PEG4-Biotin)
T5 construct: also called biotin-cyIL-33
T5 sequence: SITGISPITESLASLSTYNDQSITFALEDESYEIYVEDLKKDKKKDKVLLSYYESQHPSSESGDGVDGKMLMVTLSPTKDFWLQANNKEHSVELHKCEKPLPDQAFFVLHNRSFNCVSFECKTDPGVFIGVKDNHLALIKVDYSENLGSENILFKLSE


Experiments:
[1] = biological target: T1, human IL-33 (Genentech, huIL33.his); test: SPR Biacore
[2] = biological target: T2, human IL-33 (cell-based blocking assay …); test: cell-based or functional assay
[3] = biological target: T3, cyno IL-33 (cell-based blocking assay …); test: cell-based or functional assay
cyno IL-33 N-His [4] = biological target: T4, cyno IL-33 N-His; test: SPR Biacore T200, 25 C
Procedure: (§1) The binding kinetics of the anti-IL-33 antibody 10C12.38.H6.87Y.58I IgG4 and each anti-IL-33 antibody listed in Table 5 (RG1-RG20) to IL-33 were measured using surface plasmon resonance (SPR) on a BIACORE® T200 instrument (GE Healthcare). Anti-human Fc or anti-murine Fc (GE Healthcare, #BR-1008-39 or BR-1008-38, respectively) was immobilized on a CM5 sensor chip via amine-based coupling according to the manufacturer's protocol. Surfaces were used to capture monoclonal human IgG4 and monoclonal murine IgGs for kinetic studies. Antibody binding was measured to human IL-33 (R&D systems, #3625-IL-010/CF) and cyno IL-33 N-His (SEQ ID NO: 317) (Genentech, Inc.). A three-fold concentration series of cytokine with a range of 3.7 to 100 nM was used for the experiments. Sensograms for binding of IL-33 were recorded using an injection time of 4 min with a flow rate of 30 μl/minute with a running buffer of 0.01 M N-(2-Acetamido)iminodiacetic acid (ADA) pH 7.4, 0.15 M NaCl, 3 mM EDTA, and 0.05% TWEEN®-20. After injection, disassociation of the ligand from the antibody was monitored for 10 min in running buffer. The surface was regenerated in between cycles with an injection of 3 M magnesium chloride or Glycine-HCl pH 1.7. All binding experiments were performed at a temperature of 25′C and 37° C. After subtraction of a blank which contained running buffer only, sensograms observed for IL-33 binding to anti-IL-33 antibodies were analyzed using a 1:1 Langmuir binding model with software supplied by the manufacturer to calculate the kinetics and binding constants, including the dissociation constant (KD). Dissociative half-lives (t_{1/2}) were calculated from the kinetic rate constants. KD (M)=koff/kₒₙ and t_{1/2} (min)=ln(2)/(60*koff). […] In Tables 6-9, *IC indicates the result is inconclusive due to weak capture of antibody was observed, leading to poor binding data.

cyno IL-33 N-His [5] = biological target: T4, cyno IL-33 N-His; test: SPR Biacore T200, 37 C
Procedure: as §1

biotinylated cyno IL-33 = biological target: T5, biotinylated cyno IL-33; test: competitive ELISA, biotin-cyIL-33 to coated hST2-Fc
Procedure: The ability of the anti-IL-33 antibody 10C12.38.H6.87Y.58I IgG4 and each anti-IL-33 antibody listed in Table 5 (RG1-RG20) to block either human IL-33 or cyno IL-33 binding to human ST2 receptor was tested in a competitive binding ELISA. Briefly, 1 μg/ml of recombinant human ST2-Fc chimera protein prepared in coating buffer (50 mM sodium carbonate, pH 9.6) was coated on a 384-well MAXISORP® plate (Nalgene Nunc International; Rochester, N.Y.) and incubated overnight at 4° C. On the next day, non-specific binding was blocked with PBS containing 0.5% (w/v) solution of bovine serum albumin (BSA). Fixed concentrations of biotinylated human or cyno IL-33 prepared in assay buffer (25 mM PBS, pH 7.2, 0.1% BSA, 0.05% TWEEN®-20) were mixed with an equal volume of serially-diluted anti-IL-33 antibodies or assay buffer alone and incubated for 1 h at room temperature. The final assay concentrations of biotinylated human IL-33 or cyno IL-33 were 20 pM and 45 pM, respectively, and the final assay concentration of each antibody ranged from 0-300 nM. The pre-mixed solutions were added to the ST2-Fc coated plate and incubated for 1 h at room temperature. The binding of biotinylated IL-33 to coated ST2-Fc was detected by the sequential addition of Streptavidin Poly-HRP80 (Fitzgerald; Buckinghamshire, UK) and 3,3′,5,5′-tetramethyl benzidine (TMB) Microwell Peroxidase Substrate System (KPL; Gaithersburg, Md.). The absorbance (450 nm) was recorded using a […] ASCENT® plate reader (Thermo Scientific; Rockford, Ill.). The binding activity (%) of biotin-IL-33 to ST2 in the presence of anti-IL-33 was plotted as a function of antibody concentration. The data generated were fitted to a four-parameter equation to determine IC₅₀ values for each antibody (FIGS. 25A and 25B) using Prism software (Graphpad Software; La Jolla, Calif.). The maximum blocking (%) of each antibody was calculated as the ratio of the reduction in signal measured in the presence of antibody relative to the difference between the signal with IL-33 alone and background measurements.

| Binder | Kd [1] [nM] | Cell assay (hu) IC90 [2] | Cell assay (cy) IC90 [3] | Kd (cyno IL-33 N-His [4]) [nM] | koff (cyno IL-33 N-His [4]) [s⁻¹] | kon (cyno IL-33 N-His [4]) [M⁻¹ s⁻¹] | t1/2 (cyno IL-33 N-His [4]) [min] | Kd (cyno IL-33 N-His [5]) [nM] | koff (cyno IL-33 N-His [5]) [s⁻¹] | kon (cyno IL-33 N-His [5]) [M⁻¹ s⁻¹] | t1/2 (cyno IL-33 N-His [5]) [min] | Maximum Blocking (biotinylated cyno IL-33) [%] | IC50 (biotinylated cyno IL-33) [nM] |
| --- | --- | --- | --- | --- | --- | --- | --- | --- | --- | --- | --- | --- | --- |
| 10H2.36.F10.30V.54D (antibody, V domains shown, Humanized variant of 10H2) VH: EVQLVESGGGLVQPGGSLRLSCAASGFTFSNYWMNWVRQAPGKGLEWMAEITLKFNDYSTHYAESVKGRFTISRDNSKNTVYLQMNSLRAEDTAVYYCARRNYGNWYINVWGQGTLVTVSS VL: DIVMTQSPDSLAVSLGERATINCRASESVDKFGVSFLNWYQQKPGQPPKLLIFVASSQGSGVPDRFSGSGSGTDFTLTISSLQAEDVAVYYCQQSKDIPYTFGQGTKVEIK | 0.22 | 0.344 µg/mL and 2.27 nM | > 1.5 µg/mL and > 9.9 nM | – | – | – | – | – | – | – | – | – | – |
| H4H9664P (antibody, V domains shown) VH: QVQLVESGGGVVQPGRSLRLSCAASGFTFSSYGLHWVRQSPGKGLEWVALISYDGSNKYYADSVKGRFTISRDNSKNTLYLQMNSLRPEDTAGYFCAKSLYTTSWYGGFDYWGQGTLVTVSS VL: DIQMTQSPSSVSASVGDRVTITCRASQGIRSWLAWYQQKPGKAPNLLIYAASSLQSGVPSRFSGSGSGTDFTLTISSLQPEDFATYYCQQANSFPPTFGPGTKVDIK | – | – | – | 5.62 | 0.000556 | 99000 | 21 | 10.4 | 0.00213 | 205000 | 5 | 10 | – |
| H4H9666P (antibody, V domains shown) VH: QVQLVQSGAEVKKPGASVKVSCKASGYTFTSYGISWVRQAPGQGLEWMGWIRAYNGYTNYAQKFQGRVTMTTDTSTNTAYMELRTLNSDDTAVYYCARDRYSGSFHGNFDYWGQGTLVTVSS VL: DIQMTQSPSSVSASVGDRVTITCRASQGIFSWLAWYQQKPGKAPKVLIYAASNLESGVPSRFSGSGSGTDFTLTISSLQPEDFATYYCQQANSLPLTFGGGTKVEIK | – | – | – | 38 | 0.00625 | 164000 | 2 | 47.4 | 0.0139 | 293000 | 1 | – | – |
| H4H9667P (antibody, V domains shown) VH: EVQLVESGGGLVQPGGSLRLSCAASGFTFSTYSMHWVRQAPGKGLEYVSTINNNGDTTYYADSVKGRFTISRDNSKNTLYLQLGSLRPEDMAVYYCARQTYTSSWYGGFDSWGQGTLVTVSS VL: DIQMTQSPSSVSASVGDRVTITCRASQGITSWLAWYQQKPGKAPKLLIYAASNLQSGVPSRFSGSGSGTDFTLTITSLQPEDFATYYCQQANSLPFTFGPGTKVDIK | – | – | – | 2.83 | 0.00059 | 208000 | 20 | 5.38 | 0.00214 | 398000 | 5 | 7 | – |
| H4H9670P (antibody, V domains shown) VH: EVQLVESGGGLVQPGGSLRLSCAASGFTLSSYAMSWVRQAPGKGLEWVSAISGSGGSTYYADSVKGRFTISRDNSKNSLYLQLNSLRAEDTAVYYCAKTLYTTSWYGGFQHWGQGTLVTVSS VL: DIQMTQSPSSVSASIGDRVTITCRASQGISSWLAWYQQKPGKVPKLLIYAASSLQSGFPSRFSGSGSGTDFTLTISSLQPEDFATYYCQQTHSFPWTVGQGTKVEIK | – | – | – | 2.63 | 0.000557 | 212000 | 21 | 5.82 | 0.00221 | 380000 | 5 | 27 | 150 |
| H4H9672P (antibody, V domains shown) VH: EVQLVESGGGLVQPGGSLRLSCAASGFTLRSYVMYWVRQGPGKGLEGVSGISGSSGGTYYTDSVKGRFTISRDNSKNTLFLQMNSLRAEDTAVYFCARSVYSTTWYGGFQHWGQGTLVTVSS VL: DIQMTQSPSSVSVSVGDRVTITCRASQVISSWLAWYQLKPGKAPKLLIYAASSLQSGVPSRFSGSGSGTDFTLTISGLQPEDFAVYYCQQTNSFPLTFGGGTKVEIK | – | – | – | 5.74 | 0.0019 | 331000 | 6 | 13 | 0.00757 | 584000 | 2 | – | – |
| H4H9676P (antibody, V domains shown) VH: EVQLVESGGGLVQPGGSLRLSCSASGFTFSSYAMNWVRQAPGKGLEWVTAISGSGGGTYYADSVKGRFTISRDNSKNSLFLQLNSLRAEDTAVYYCAKQTYTSSWYGGFDIWGQGTMVTVSS VL: DIQMTQSPSSVSASVGDRVTITCRASQGFSSWLAWYQQIPGKAPKLLIYAASRLQSGVPSRFRGSGSGTDFTLTISSLQPEDFATYYCQQANSFPLTFGGGTKVEIK | – | – | – | 3.15 | 0.00248 | 787000 | 5 | 6.93 | 0.0111 | 1.6e+06 | 1 | – | – |
| 2B6.54S (antibody, V domains shown, Humanized variant of 2B6) VH: EVQLVQSGAEVKKPGASVKVSCKASGYTFSDYNMNWVRQAPGQGLESIGDINPKSGDTFYNQNFKDRATLTIDKSTSTAYLELSSLRSEDTAVYYCARHYYYGSSYGGFVYWGQGTLVTVSS VL: DIQMTQSPSSLSASVGDRVTITCHASQNINVWLSWYQQKPGKNPKLLIYAASKLHTGVPSRFSGSGSGTDFTLTISSLQPEDFATYYCQQGQSYPLTFGQGTKVEIK | 336 | – | – | – | – | – | – | – | – | – | – | – | – |
| 2B6.55A (NA) (antibody, V domains shown, Humanized variant of 2B6) VH: EVQLVQSGAEVKKPGASVKVSCKASGYTFSDYNMNWVRQAPGQGLESIGDINPKNADTFYNQNFKDRATLTIDKSTSTAYLELSSLRSEDTAVYYCARHYYYGSSYGGFVYWGQGTLVTVSS VL: DIQMTQSPSSLSASVGDRVTITCHASQNINVWLSWYQQKPGKNPKLLIYAASKLHTGVPSRFSGSGSGTDFTLTISSLQPEDFATYYCQQGQSYPLTFGQGTKVEIK | 0.363 | – | – | – | – | – | – | – | – | – | – | – | – |
